Assay results taken from publication PMC5074314, “Maltase protein of Ogataea (Hansenula) polymorpha is a counterpart to the resurrected ancestor protein ancMALS of yeast maltases and isomaltases” (Yeast (Chichester, England), 2016).

B1: Op MAL1 (maltase protein MAL1 of Ogataea polymorpha) (Ogataea angusta) (protein)
chain: MTIESQEPWWKSAVVYQVWPASFKDSNGDGIGDLNGITSELDHIKSLGTDVIWLSPHYASPLDDMGYDISDYNAINPQFGTMEDMDRLLAEIKKRDMRLILDLVINHTSSEHAWFKESRSSRDNPKRDWYIWKDNANNWLSFFSGSAWSYDEKTKQYYLRLFAETQPDLNWENPKTREAIYKSALEFWYEKGVSGFRIDTAGLYSKVQTFEDAPVTFPGEKYQPAGPLINSGPRIHEFHKEMYEKVTSRYDAMTVGEVGHCSKADALKYVSAKEKEMNMMFLFDTVDVGSDKSDRFRYKGFTLTDFKDAIINQSNFIFDDETGELNDAWSTVFIENHDQPRCVTRFGNTSNKLFWSRSAKMLALLQTTLTGTLFVYQGQEIGMTNVSPKWDISEYLDINTINYWNAFNETEHSDEEKAELLKIINLLARDNARTPVQWDSSENGGFGGKPWMRINDNYKDINVASQKEDPDSVLNFYRNAIKTRKHYSETLIFGRFEVQDYDNQEIFYYTKTSNKGQKKMAVVLNFTDREVEYPIPQGKLLLSNIANNITGKLQPYEGRLIEVN

Legend:
[1] = target: T1, Op MAL1 (maltase protein MAL1 of Ogataea polymorpha) (Ogataea angusta, UniProt Q9P8G8); test: inhibition of α-pNPG hydrolysis (p-nitrophenol release); type: biochemical; details: competitive; 0.1-3.0 mM α-pNPG; 100 mM K-phosphate pH 6.5, 0.1 mM EDTA, 37 °C; 5 min pre-incubation; read-out: K i (mM) of Op maltase
T1 sequence (Q9P8G8 1-564): B1 chain

purified protein = substrate: O=[N+]([O-])c1ccc(O[C@H]2O[C@H](CO)[C@@H](O)[C@H](O)[C@H]2O)cc1; test: purified protein; details: 100 mM K-phosphate pH 6.5, 0.1 mM EDTA, 37 °C
[2] = substrate: CO[C@H]1O[C@H](CO)[C@@H](O)[C@H](O)[C@H]1O; test: initial rate of glucose release; type: biochemical, Ogataea angusta; details: 100 mM K-phosphate pH 6.5, 0.1 mM EDTA, 37 °C
Description: (§1) initial rate of glucose release on Op MAL1 (maltase protein MAL1 of Ogataea polymorpha)

[3] = substrate: OC[C@H]1O[C@@](CO)(O[C@H]2O[C@H](CO)[C@@H](O)[C@H](O)[C@H]2O)[C@@H](O)[C@@H]1O; test: initial rate of glucose release; type: biochemical, Ogataea angusta; details: 100 mM K-phosphate pH 6.5, 0.1 mM EDTA, 37 °C
Description: as §1

Molecule | Ki [1] [mM] | Km (purified protein) [mM] | kcat (purified protein) [s⁻¹] | kcat/Km (purified protein) [M⁻¹ s⁻¹] | Km [2] [mM] | kcat [2] [s⁻¹] | kcat/Km [2] [M⁻¹ s⁻¹] | Km [3] [mM] | kcat [3] [s⁻¹] | kcat/Km [3] [M⁻¹ s⁻¹]
OC[C@H]1OC(O)[C@H](O)[C@@H](O)[C@@H]1O (stereo partly drawn) [D-Glucose] | 5.1 ± 0.7 | – | – | – | – | – | – | – | – | –
C[C@H]1O[C@H](O[C@H]2[C@H](O)[C@@H](O)[C@@H](O[C@H]3[C@H](O)[C@@H](O)C(O)O[C@@H]3CO)O[C@@H]2CO)[C@H](O)[C@@H](O)[C@@H]1N[C@H]1C=C(CO)[C@@H](O)[C@H](O)[C@H]1O (some centres unmarked) [Acarbose] | 0.0065 ± 0.0008 | – | – | – | – | – | – | – | – | –
B1 | – | 0.52 ± 0.05 | 141 | 272000 | 35.5 ± 3.3 | 30.1 ± 1.1 | 848 | 25.1 ± 2.4 | 183 ± 6.95 | 7290
